# Test results as given in patent publication US20070036793A1, “Methods for use of an lkb1/strad7mo25 complex” (priority 2003, published 2007).
# T1: T-loop peptide of AMPK (Example 3)
# T1 chain: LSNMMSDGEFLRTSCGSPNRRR
# Target: T1, T-loop peptide of AMPK (Example 3)
protein,measurement,value
recombinant GST-LKB1:STRADα:MO25α complex (protein) chain 1: MDVADPEPLGLFSEGELMSVGMDTFIHRIDSTEVIYQPRRKRAKLIGKYLMGDLLGEGSYGKVKEVLDSETLCRRAVKILKKKKLRRIPNGEANVKKEIQLLRRLRHRNVIQLVDVLYNEEKQKMYMVMEYCVCGMQEMLDSVPEKRFPVCQAHGYFRQLIDGLEYLHSQGIVHKDIKPGNLLLTTNGTLKISDLGVAEALHPFAVDDTCRTSQGSPAFQPPEIANGLDTFSGFKVDIWSAGVTLYNITTGLYPFEGDNIYKLFENIGRGDFTIPCDCGPPLSDLLRGMLEYEPAKRFSIRQIRQHSWFRKKHPLAEALVPIPPSPDTKDRWRSMTVVPYLEDLHGRAEEEEEEDLFDIEDGIIYTQDFTVPGQVLEEEVGQNGQSHSLPKAVCVNGTEPQLSSKVKPEGRPGTANPARKVCSSNKIRRLSACKQQ chain 2: DYKDDDDKMSFLVSKPERIRRWVSEKFIVEGLRDLELFGEQPPGDTRRKTNDASSESIASFSKQEVMSSFLPEGGCYELLTVIGKGFEDLMTVNLARYKPTGEYVTVRRINLEACSNEMVTFLQGELHVSKLFNHPNIVPYRATFIADNELWVVTSFMAYGSAKDLICTHFMDGMNELAIAYILQGVLKALDYIHHMGYVHRSVKASHILISVDGKVYLSGLRSNLSMISHGQRQRVVHDFPKYSVKVLPWLSPEVLQQNLQGYDAKSDIYSVGITACELANGHVPFKDMPATQMLLEKLNGTVPCLLDTSTIPAEELTMSPSRSVANSGLSDSLTTSTPRPSNGDSPSHPYHRTFSPHFHHFVEQCLQRNPDARPSASTLLNHSFFKQIKRRASEALPELLRPVTPITNFEGSQSQDHSGIFGLVTNLEELEVDDWEF chain 3: MPFPFGKSHKSPADIVKNLKESMAVLEKQDISDKKAEKATEEVSKNLVAMKEILYGTNEKEPQTEAVAQLAQELYNSGLLSTLVADLQLIDFEGKKDVAQIFNNILRRQIGTRTPTVEYICTQQNILFMLLKGYESPEIALNCGIMLRECIRHEPLAKIILWSEQFYDFFRYVEMSTFDIASDAFATFKDLLTRHKLLSAEFLEQHYDRFFSEYEKLLHSENYVTKRQSLKLLGELLLDRHNFTIMTKYISKPENLKLMMNLLRDKSRNIQFEAFHVFKVFVANPNKTQPILDILLKNQAKLIEFLSKFQNDRTEDEQFNDEKTYLVKQIRDLKRPAQQEA,Km (phosphorylation of the T-loop peptide),The Km for the peptide was estimated to be 1.80±0.48
same,Vmax of phosphorylation of AMPKtide by the GST-LKB1-STRADα-MO25α complex,Vmax: 23.43 ± 3.51 U/mg
